Measured values from the RNAGym collection of RNA variant scans (doi:10.7554/elife.90254).

B1: OR4K15 (parent)
chain: GUUAACGGUCAUAGGCCAUGGAAACUAGGAGCACCAUUUCGCUGCCAGUGAAGAAAUGAACAAAGAAAAUCUGGGCCAGGCAGGCAUCAAAAGAAAUAGUCUUGCGCUCAACCAGAAAGUCUGUAAUCAUUUUAAGGGUA

Variants of: B1
Assay: self-cleavage, relative activity (ratio to wild type); higher = more cleavage; in vitro, sequencing; the parent is a self-cleaving ribozyme

Going from GUUAACGGUCAUAGGCCAUGGAAACUAGGAGCACCAUUUCGCAGCCAGUGAAGAAAUGAACAAAGAAAAUCUGGGCCAGGCAGGCAUCAAAAGAGAUAGUCUUGCGCUCAACCAGAAAGUCUGUAAUCAUUUUAAGGGUA [U43A A95G] to GUUAACGGUCAUAGGCCAUGGAAACUAGGAGCACCAUUUCGUUGCCAGUGAAGAAAUGAACAAAGAAAAUCUGGGCCAGGCAGGCAUCAAAAGAAAUAGUCUUGCGCUCAACCAGAAAGUCUGUAAUCAUUUUAAGGGAA [C42U U139A], the self-cleavage rises from 0.92 to 2.

Going from GUUAACGGUCAUAGGCCAUGGAAACUAGGAGCACCAUUUCGCAGCCAGUGAAGAAAUGAACAAAGAGAAUCUGGGCCAGGCAGGCAUCAAAAGAAAUAGUCUUGCGCUCAACCAGAAAGUCUGUAAUCAUUUUAAGGGUA [U43A A67G] to GUUAACGGUCAUAGGCCAUGGAAACUAGGAGCACCAUUUCGCAGCCAGUGAAGAAAUGAACAAAGAAAAUCUGGGCCAGGCAGGCAUCAGAAGAAAUAGUCUUGCGCUCAACCAGAAAGUCUGUAAUCAUUUUAAGGGUA [U43A A90G], the self-cleavage falls from 1.88 to 0.76.

Compared with GUUAACGGUCAUAGGCCAUGGAAACUAGGAGCACCAUUUCGCAGCCAGUGAAGAAAUGAACAAAGAAAAUCUGGGCCAGGCAGGCAUCAUAAGAAAUAGUCUUGCGCUCAACCAGAAAGUCUGUAAUCAUUUUAAGGGUA [U43A A90U], GUUAACGGUCAUAGGCCAUGGAAACUAGGAGCACCAUUUCGCAGCCAGUGAAGAAACGAACAAAGAAAAUCUGGGCCAGGCAGGCAUCAAAAGAAAUAGUCUUGCGCUCAACCAGAAAGUCUGUAAUCAUUUUAAGGGUA [U43A U57C] is lower in self-cleavage: 1.74 for the first, 1.15 for the second.

First: GUUAACGGUCAUAGGCCAUGGAAACUAGGAGCACCAUUUCGCAGCCAGUGAAGAAAUGGACAAAGAAAAUCUGGGCCAGGCAGGCAUCAAAAGAAAUAGUCUUGCGCUCAACCAGAAAGUCUGUAAUCAUUUUAAGGGUA [U43A A59G]
Second: GUUAACGGUCAUAGGCCAUGGAAACUAGGAGCACCAUUUCGUUGCCAGUGAAGAAAUGAACAAAGAAAAUCUGGGCCAGGCAGGCAUCAAAAGAAAUAGUCUUGCGCUCAACCAGAAAGUCUGUAGUCAUUUUAAGGGUA [C42U A126G]
The self-cleavage of the first is higher: 1.52 for the first, 0.91 for the second.

Going from GUUAACGGUCAUAGGCCAUGGAAACUAGGAGCACCAUUUCGCAGCCAGUGAAGAAAUGAACAAAGAAAAUCUGGGCCAGGCAGGCAUCAAAAGAAAUAGUCUUGCGCUCGACCAGAAAGUCUGUAAUCAUUUUAAGGGUA [U43A A110G] to GUUAACGGUCAUAGGCCAUGGAAACUAGGAGCACCAUUUCGUUGCCAGUGAAGAAAUGAACAAAGAAAAUCUGGGCCAGGCAGGCAUCAAAAGAAAUAGUCUUGUGCUCAACCAGAAAGUCUGUAAUCAUUUUAAGGGUA [C42U C105U], the self-cleavage falls from 0.19 to 0.05.

Compared with GUUAACGGUCAUAGGCCAUGGAAACUAGGAGCACCAUUUCGCAGCCAGUGAAGAAAUGAACAAAGAAAAUCUGGGCCAGGCAGGCAUCAAAAGAAAUAGCCUUGCGCUCAACCAGAAAGUCUGUAAUCAUUUUAAGGGUA [U43A U100C], GUUAACGGUCAUAGGCCAUGGAAACUAGGAGCACCAUUUCGCAGCCAGUGAAGAAAUGAACAAAGAAAAUCUGGGCCAGGCAGGCAUCAAAAGAAAUAGUCUUGCGCUCAACCAGAAAGCCUGUAAUCAUUUUAAGGGUA [U43A U120C] is lower in self-cleavage: 2.43 for the first, 0.37 for the second.

Going from GUUAACGGUCAUAGGCCAUGGAAACUAGGAGCACCAUUUCGCAGCCAGUGAAGAAAUGAACAAAGAAAAUCUGGGCCAGGCAGGCAUCAAAAGAAAUAGUCUUGCGCUCAACCAGAAAGACUGUAAUCAUUUUAAGGGUA [U43A U120A] to GUUAACGGUCAUAGGCCAUGGAAACUAGGAGCACCAUUUCGCAGCCAGUGAAGAAAUGAACAAAGAAAAGCUGGGCCAGGCAGGCAUCAAAAGAAAUAGUCUUGCGCUCAACCAGAAAGUCUGUAAUCAUUUUAAGGGUA [U43A U70G], the self-cleavage falls from 1.57 to 1.12.

Going from GUUAACGGUCAUAGGCCAUGGAAACUAGGAGCACCAUUUCGCAGCCAGUGAAGAAAUGAACAAAGAAAACCUGGGCCAGGCAGGCAUCAAAAGAAAUAGUCUUGCGCUCAACCAGAAAGUCUGUAAUCAUUUUAAGGGUA [U43A U70C] to GUUAACGGUCAUAGGCCAUGGAAACUAGGAGCACCAUUUCGCAGCCAGUGAAGAAAUGAACAAAGAAAAUCUGCGCCAGGCAGGCAUCAAAAGAAAUAGUCUUGCGCUCAACCAGAAAGUCUGUAAUCAUUUUAAGGGUA [U43A G74C], the self-cleavage falls from 0.98 to 0.23.

First: GUUAACGGUCAUAGGCCAUGGAAACUAGGAGCACCAUUUCGCAGCCAGUGAAGAAAUGAACAAAGAAAAUCUGGGCCAGGCAGGCAUCAAAAGAAGUAGUCUUGCGCUCAACCAGAAAGUCUGUAAUCAUUUUAAGGGUA [U43A A96G]
Second: GUUAACGGUCAUAGGCCAUGGAAACUAGGAGCACCAUUUCGCAGCCAGUGAAGAAAUGAACAAAGAAAAUCUGGGCCAGGCAGGCAUCAAAAGAAUUAGUCUUGCGCUCAACCAGAAAGUCUGUAAUCAUUUUAAGGGUA [U43A A96U]
The self-cleavage of the first is higher: 2.07 for the first, 1.72 for the second.

Going from GUUAACGGUCAUAGGCCAUGGAAACUAGGAGCACCAUUUCGCAGCCAGUGAAGAAAUGAACAAAGAAAAUCUGGGCCAGGCAGGCAUCAAAAGAAAUCGUCUUGCGCUCAACCAGAAAGUCUGUAAUCAUUUUAAGGGUA [U43A A98C] to GUUAACGGUCAUAGGCCAUGGAAACUAGGAGCACCAUUUCGCAGCCAGUGUAGAAAUGAACAAAGAAAAUCUGGGCCAGGCAGGCAUCAAAAGAAAUAGUCUUGCGCUCAACCAGAAAGUCUGUAAUCAUUUUAAGGGUA [U43A A51U], the self-cleavage falls from 1.91 to 1.28.
